Experimental data reported in patent US20220251222A1 (Johns Hopkins, published 2022).

How the values were obtained:
[1] = biological target: T1, IL-6Rα expressed on lentivirally transduced HEK 293T cells (UniProt P08887 20-468, limits assumed); experiment: flow cytometry binding titration on IL-6R+/IL-8R- HEK 293T cells, detected with FITC anti-human IgG1
T1 construct: whole, on cells; also called IL-6Rα^+ cells; IL-6Rα^+/IL-8R^- HEK 293T cells
T1 sequence (looked up): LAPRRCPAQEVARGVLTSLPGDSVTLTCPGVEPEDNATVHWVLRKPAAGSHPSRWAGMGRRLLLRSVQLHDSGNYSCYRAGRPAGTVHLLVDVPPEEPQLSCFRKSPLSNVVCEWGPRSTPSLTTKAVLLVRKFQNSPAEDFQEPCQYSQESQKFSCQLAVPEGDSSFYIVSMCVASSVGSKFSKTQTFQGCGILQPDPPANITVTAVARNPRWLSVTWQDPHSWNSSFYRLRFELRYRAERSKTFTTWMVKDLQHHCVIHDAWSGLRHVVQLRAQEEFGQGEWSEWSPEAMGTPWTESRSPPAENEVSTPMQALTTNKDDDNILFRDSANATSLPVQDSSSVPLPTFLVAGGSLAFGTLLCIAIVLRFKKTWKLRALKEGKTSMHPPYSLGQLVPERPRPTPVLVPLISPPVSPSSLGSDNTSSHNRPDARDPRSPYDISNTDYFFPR
Description: (§1) HEK 293T cells were cultured in Dulbecco's modified Eagle's medium (DMEM, Mediatech) supplemented with 10% (Hyclone), 2 mM L-glutamine and 100 U/mL penicillin-streptomycin (Gibco). For surface binding assays, IL-6Rα⁺/IL-8R⁻, IL-6Rα⁻/IL-8R⁺, IL-6Rα⁺/IL-8R⁺, and […] HEK 293T cells were trypsinized for detachment, resuspended in PBSA, and then aliquoted into 96-well plates (1×10⁵ cells per well). Cells were incubated with titrations of various monoclonal or bispecific antibodies for 2 hr at 4° C. with rotation. Cells were then washed and incubated with a 1:50 dilution of fluorescein isothiocyanate (FITC)-conjugated anti-human IgG1 antibody (Sigma-Aldrich, Clone 8c/6-39) in PBSA for 15 min at 4° C. After a final wash, cells were resuspended in PBSA and analyzed on a CytoFLEX flow cytometer (Beckman Coulter). Binding isotherms were fitted to a first-order logistic model and KD values were calculated using GraphPad Prism data analysis software. Mean fluorescence intensity (MFI) of unstimulated cells was subtracted. […]
(§2) To determine whether engineered bispecific binding agents BS1 and BS2 specifically engage target antigens in a physiologically relevant context, antibody binding to IL-6Rα⁺/IL-8R⁻, IL-6Rα⁻/IL-8R⁺, IL-6Rα⁺/IL-8R⁺, and IL-6Rα⁻/IL-8R⁻ lentivirally transduced HEK 293T cells was measured via flow cytometry. […]

[2] = biological target: T2, IL-8RB expressed on lentivirally transduced HEK 293T cells (UniProt P25025 1-360, limits assumed); experiment: competition with 400 nM His-tagged IL-8 on IL-6Rα-/IL-8R+ HEK 293T cells, flow cytometry
T2 construct: whole, on cells; also called IL-8R^+ cells; IL-6Rα^-/IL-8R^+ HEK 293T cells
T2 sequence (looked up): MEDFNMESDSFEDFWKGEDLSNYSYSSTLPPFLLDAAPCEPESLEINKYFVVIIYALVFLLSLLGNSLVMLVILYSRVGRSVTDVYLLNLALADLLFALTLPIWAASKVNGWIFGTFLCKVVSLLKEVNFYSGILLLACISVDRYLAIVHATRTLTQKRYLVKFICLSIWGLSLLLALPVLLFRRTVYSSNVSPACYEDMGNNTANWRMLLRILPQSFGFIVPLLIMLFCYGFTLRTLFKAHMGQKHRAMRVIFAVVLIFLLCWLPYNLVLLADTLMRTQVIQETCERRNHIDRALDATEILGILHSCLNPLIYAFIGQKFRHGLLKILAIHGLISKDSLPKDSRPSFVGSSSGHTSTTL
Description: IL-6Rα⁺/IL-8R⁻ and IL-6Rα⁻/IL-8R⁺ HEK 293T cells were cultured as previously described, and were trypsinized, resuspended in PBSA, and aliquoted into 96-well plates (2×10⁵ cells per well). IL-6Rα⁺/IL-8R⁻ 293T cells were incubated with titrations of various monoclonal or bispecific antibodies in the presence of saturating concentration of biotinylated IL-6 (100 nM) (Acro Biosystem, cat #: IL6-H8218-25UG) for 2 hr at 4° C. with rotation. Cells were then washed and incubated with 1:200 dilution of Alexa Fluor 647-conjugated streptavidin (Fisher Scientific, cat #: S21374) in PBSA for 15 min at 4° C. After a final wash, cells were resuspended in PBSA and analyzed on a CytoFLEX flow cytometer (Beckman Coulter). Curves were fitted to a first-order logistic model and IC₅₀ values were calculated using GraphPad Prism data analysis software. Mean fluorescence intensity (MFI) of unstimulated cells was subtracted. Similarly, IL-6Rα⁻/IL-8R⁺ 293T cells were incubated with titrations of various monoclonal or bispecific antibodies with saturating concentration of His-tagged IL-8 (400 nM) (Sino Biological, cat #: 10098-H08Y-100) for 2 hr at 4° C. with rotation. […] After a final wash, cells were resuspended in PBSA and analyzed on a CytoFLEX flow cytometer (Beckman Coulter). Curves were fitted to a first-order logistic model and IC₅₀ values were calculated using GraphPad Prism data analysis software. […]

[3] = biological target: T3, IL-6Rα and IL-8R co-expressed on IL-6Rα^+/IL-8R^+ HEK 293T cells (UniProt P08887 20-468; P25025 1-360, limits assumed); experiment: flow cytometry titration on IL-6Rα+/IL-8R+ HEK 293T cells (both targets present); IL-6Rα+/IL-8R+ 293T cells, both targets present (FIG. 7C)
T3 construct: whole, on cells; Not a complex: two separate receptors on the same cell; also called IL-6Rα^+/IL-8R^+ 293T cells
T3 sequence (looked up) 1: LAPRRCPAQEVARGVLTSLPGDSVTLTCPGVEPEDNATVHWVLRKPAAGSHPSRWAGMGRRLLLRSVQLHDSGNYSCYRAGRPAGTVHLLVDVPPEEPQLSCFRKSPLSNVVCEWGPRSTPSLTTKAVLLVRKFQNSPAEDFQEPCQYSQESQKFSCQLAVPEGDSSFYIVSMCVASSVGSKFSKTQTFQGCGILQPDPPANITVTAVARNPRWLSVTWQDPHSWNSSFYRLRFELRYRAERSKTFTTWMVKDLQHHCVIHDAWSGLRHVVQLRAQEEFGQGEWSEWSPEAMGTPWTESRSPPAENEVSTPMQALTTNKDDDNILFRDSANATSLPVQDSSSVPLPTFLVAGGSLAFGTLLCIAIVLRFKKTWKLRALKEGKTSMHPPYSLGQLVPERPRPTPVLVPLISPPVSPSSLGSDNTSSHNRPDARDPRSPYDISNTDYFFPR
T3 sequence (looked up) 2: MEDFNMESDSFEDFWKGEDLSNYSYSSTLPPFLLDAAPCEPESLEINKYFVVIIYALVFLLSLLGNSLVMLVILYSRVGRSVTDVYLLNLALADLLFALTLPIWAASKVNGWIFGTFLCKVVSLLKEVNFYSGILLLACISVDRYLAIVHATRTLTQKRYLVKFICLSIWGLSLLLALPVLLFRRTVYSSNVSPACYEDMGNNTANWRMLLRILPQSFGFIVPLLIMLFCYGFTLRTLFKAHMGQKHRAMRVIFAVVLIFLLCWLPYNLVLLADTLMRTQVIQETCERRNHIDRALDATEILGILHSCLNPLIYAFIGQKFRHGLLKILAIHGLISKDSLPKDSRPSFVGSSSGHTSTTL
Description: as §1, §2

B1: tocilizumab, recombinant monoclonal hIgG1 (anti-IL-6Rα) (antibody, V domains shown)
VH: EVQLQESGPGLVRPSQTLSLTCTVSGYSITSDHAWSWVRQPPGRGLEWIGYISYSGITTYNPSLKSRVTMLRDTSKNQFSLRLSSVTAADTAVYYCARSLARTTAMDYWGQGSLVTVSS
VL: DIQMTQSPSSLSASVGDRVTITCRASQDISSYLNWYQQKPGKAPKLLIYYTSRLHSGVPSRFSGSGSGTDFTFTISSLQPEDIATYYCQQGNTLPYTFGQGTKVEIK
notes: also called anti-IL-6Rα antibody
With B1 the “EC50 (read off the curve)” value [1] was roughly 3 nM.

B2: BS2 bispecific antibody (scFv-IgG fusion: 10H2 IgG with tocilizumab scFv on the light chains) (bispecific antibody)
heavy: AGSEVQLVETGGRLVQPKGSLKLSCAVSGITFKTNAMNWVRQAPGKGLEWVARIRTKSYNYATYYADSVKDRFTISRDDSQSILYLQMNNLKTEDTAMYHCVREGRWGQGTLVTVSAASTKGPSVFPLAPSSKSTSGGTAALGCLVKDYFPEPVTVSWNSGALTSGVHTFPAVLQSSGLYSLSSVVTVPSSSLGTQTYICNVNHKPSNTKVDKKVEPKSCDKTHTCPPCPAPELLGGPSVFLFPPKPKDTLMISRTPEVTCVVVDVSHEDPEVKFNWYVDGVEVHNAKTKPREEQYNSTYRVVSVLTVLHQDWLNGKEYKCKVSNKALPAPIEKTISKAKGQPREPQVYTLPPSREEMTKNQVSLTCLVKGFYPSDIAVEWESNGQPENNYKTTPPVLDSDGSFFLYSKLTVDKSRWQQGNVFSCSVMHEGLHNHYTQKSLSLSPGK
light: AGSQAVVTQESALTTSPGETVTLTCRSSTGAVTTSNYANWVQEKPDHLFTGLIGGTNNRPPGVPARFSGSLIGDKAALTITGAQIEDEAIYFCALWYSNHLVFGGGTKLTVLRTVAAPSVFIFPPSDEQLKSGTASVVCLLNNFYPREAKVQWKVDNALQSGNSQESVTEQDSKDSTYSLSSTLTLSKADYEKHKVYACEVTHQGLSSPVTKSFNRGECGGGGSGGGGSEVQLQESGPGLVRPSQTLSLTCTVSGYSITSDHAWSWVRQPPGRGLEWIGYISYSGITTYNPSLKSRVTMLRDTSKNQFSLRLSSVTAADTAVYYCARSLARTTAMDYWGQGSLVTVSSGGGGSGGGGSGGGGSDIQMTQSPSSLSASVGDRVTITCRASQDISSYLNWYQQKPGKAPKLLIYYTSRLHSGVPSRFSGSGSGTDFTFTISSLQPEDIATYYCQQGNTLPYTFGQGTKVEIK
notes: Human IgG1-based
Binder B2 has an IC50 [2] of 22 nM and a Kd [3] of 3.4 nM.
